# Measured values as given in PMC7875428.
# Columns and labels:
# [1] = target: 6×His-tagged human DSG2 EC1-5 (amino acids A1-A553) from wild-type Expi293F cells (human); test: BLI; biotinylated DSG2 variants loaded on streptavidin biosensors (immobilized at 1 μg/mL); FimH^LD or FimH^Q133K in solution, 10 μM to 156 nM, 15 min association, 20 min dissociation; 10 mM HEPES pH 7.4, 150 mM NaCl, 1 mM CaCl2, 3 mM EDTA, 0.005% P20, 1% BSA, 25°C; Octet-Red96; global 1:1 fit with drifting baseline; apparent constants
# [2] = target: 6×His-tagged human DSG2 EC1-5 (amino acids A1-A553) from Expi293F GnTI- cells (human); test: as above
substance,measurement,setting,value
"lectin domain of FimH (FimH^LD, amino acids F1-G160) (from UniProt P08191 22-181) (domain or fragment)",Kd,[1],1600 nM
same,Kd,[2],484 nM
